Laboratory results: the RNAGym collection of RNA variant scans (doi:10.1073/pnas.2313332121)

B1: TPR t1 (parent)
chain: GACCAAUCUGCCCUCAGAGCUCGAGAACAUCUUCGGAUGCAGAGGAGGCAGGCUUCGGUGGCGCGAUAGCGCCAACGUCCUCAACCUCCAAUGCAUCCCACCACAUGAUGAUGCCUGAAGAGCCUUGGUUUUUUG

Variants of: B1
Assay: polymerase ribozyme fitness, log enrichment relative to wild type (log ratio); higher = more active; in vitro selection for triplet polymerase activity
Procedure, shortened: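 Fitness compares each genotype's enrichment to that of the wild type on a logarithmic scale, averaging replicates with inverse-variance weights. The logarithm is base 2. Enrichment came from Illumina sequencing of input and output libraries after one triplicate round of in vitro selection, which included frozen incubation at −7 °C, of PCR-built, transcribed mutant libraries of each subunit of a heterodimeric triplet polymerase ribozyme. Only genotypes with ≥10 input reads and ≥1 read per output were kept.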

Row | Variant | polymerase ribozyme fitness (log ratio)
1 | G45C G60C U78A C89A G120C G127A | -5.17
2 | A111C A119U U131C | 0.0159
3 | A6C C56U A83C U112G | -1.14
4 | A5G U87C | -0.474
5 | U9A C11G G93U A100G | -5.7
6 | A43C C56U C94A G117A | -5.97
7 | C40G C86U C101A | -2.66
8 | U38G C53U C124U | 0.103
9 | C11G A50C U125A | -0.245
10 | C88U G120A | -0.0108
11 | C13U G69C | -1.26
12 | U9A G52C C94U C101A | -1.78
13 | C22A C40A G69A C86U C97G C99G U125A | -6.51
14 | G57U A95U A121U C124U | 1.18
15 | C98U A121C U125A U129A | -1.75
16 | A5U C86A | -0.495
17 | C15A C70G C99A G117A C124A G128A | -6.67
18 | G71C C88G | -1.88
19 | A46U | -1.11
20 | G48A C88U U96A | -1.74
21 | C31A C73U | -5.76
22 | C8A A74U | -0.0501
23 | U9G C34U A103U | -4.66
24 | G47U C53G C56G | -2.42

Row | Variant | polymerase ribozyme fitness (log ratio)
25 | A41C U106G C114U U130A | -4.41
26 | C88A G93C | -2.45
27 | G60A G110A U112C | -1.67
28 | G69C C104A C123G | -1.33
29 | G10U U112A C114U | -1.01
30 | C56A A121U | 1.42
31 | C88A C102A | -2.16
32 | G60U C124A | 1.7
33 | A37G A50C G57A G117C | -6.92
34 | A26G U109G | -6.07
35 | A90C G117U | -3.98
36 | C4G U9C C15A U55C C73A C79G | -2.6
37 | U9A A50C | 0.19
38 | C4G U9A C62G C89A C115A G117C | -5.76
39 | A5U A37G C72U | -0.735
40 | A95C C97U C101G | -3.36
41 | C20G A91G C101A G117C | -4.92
42 | G63A C123U | 0.883
43 | A18C C114G | -2.59
44 | G58A C101U G120U | -0.534
45 | G65A C79U | -3.57
46 | A29C C56G C82A U87C C89A A108G C124A | -7.12
47 | C72A C123U | 1.5
48 | A6U G63U U78C C97U G120C | -3.08

Row | Variant | polymerase ribozyme fitness (log ratio)
49 | U21G C64U C72U C73G | -3.77
50 | C53A G93A | -0.768
51 | C8A C12A G39A | -0.403
52 | A2G C114A C124A | -0.647
53 | C80U U112G G117C | -5.23
54 | C11U A24U G65C A103C A108U A111U | -6.52
55 | A18U C70A G113A G122A | -4.58
56 | C3A A5U G36C G47C A75U G77A A105G U106A C123U U130C | -2.36
57 | C4G G39U | -3.24
58 | C4G C72G | -1.74
59 | G48U U59G C72U C94G | -1.86
60 | C22G G63A C114U | -3.48
61 | U9G U59G | 0.701
62 | C82U C114U | -2.08
63 | G47U G57A C73A C85G U106A U133A | -5.19
64 | C49A C86G C101A A118U | -1.56
65 | G42U A43C G69C A74U U87G C89G | -5.66
66 | C11G C115G | -1.35
67 | G17A C20U | -3.63
68 | A24G C72G C94A | -2.87
69 | G57C G120U C124U | 0.197
70 | G39U G63A A100U G120U | -2.94
71 | G48C C123U | -0.702
72 | G39C G93A | -2.3

Row | Variant | polymerase ribozyme fitness (log ratio)
73 | C8G A37U G44A G60C C115A | -0.0408
74 | C49A C72A C73U C97G C123A | -5.81
75 | C49U G61U U81A C115G | -2.05
76 | U9G G10U C104A | -1.09
77 | G44U C49A A50C C72A | -1.95
78 | U55C A105G C123G | -0.655
79 | C73U A91C | -1.74
80 | C15A A24G | -5.73
81 | C76A A84U U106A G120U | -2.24
82 | C79A A100C | -2.29
83 | G61C C115U | -3.07
84 | G63C G127U | -1.97
85 | U59C G113U | -3.62
86 | A43G U130C | -1.1
87 | C3U A29G C53U G57C C86G | -4.64
88 | G10A A24C A29G C34U G44A C53U C98U A111U | -7.41
89 | U14A A50G | -2.52
90 | G48C C79U G128C | -4.29
91 | C12U A103U | -4.81
92 | A18G | -1.83
93 | A66G G128C | -3.65
94 | U9G G52U C80A G110U | -5.82
95 | A29U C40U C62A A83C | -3.08
96 | A66G U126G | -2.72

Row | Variant | polymerase ribozyme fitness (log ratio)
97 | G10A A43C C123A U125C | -1.73
98 | U54C C72U C82U A83C C115G G117A U129C | -4.96
99 | A90G A95G U133G | -0.0907
100 | U9A C73U | 0.98
101 | A2C C73U C76G U112G | -1.38
102 | A27U C73A | -3.09
103 | G47C C82U | -1.27
104 | C20U U55G | -1.39
105 | G36U U55G A83U G110A U130G | -5.37
106 | A6U G47A C72G A75G | -2.41
107 | C101U C123A | 0.0488
108 | C72U U78G | -1.7
109 | C94U U112A C124G | 1.39
110 | C11U C73U C114A C123U | -2.7
111 | C49G G120U | 0.305
112 | C13G A50U | -3.13
113 | U21A A27C A68G C94A | -6.24
114 | C20G C62A | -4.56
115 | C4G U9C A43G G47A C70U | -4.92
116 | U55G C62A A74U C102A | -5.52
117 | A50U C62U C70G G117U G120A | -6.48
118 | C28U G45A C49G C72U G122A | -4.63
119 | U21A C89U | -0.222
120 | U9A U116C | 0.0652

Row | Variant | polymerase ribozyme fitness (log ratio)
121 | G10A G47C G63A C97U C101A C102U | -8.22
122 | G10A C104U | -0.557
123 | C34A C114G | -5.41
124 | C56A C124U | 1.18
125 | A46U C64U C101U U132C | -1.55
126 | G36U U96A C97A G127A | -2.83
127 | C28U G93A C101U | -3.39
128 | A2U A50G C73U U78A | -3.42
129 | C12G A41U G44C C64U C82G G113U | -5.32
130 | A50C C56A G77C C115A | -1.07
131 | C13G C15U G58C | -3.58
132 | C22A G45A G63C C88U | -5.31
133 | C28U A111U | -3.7
134 | G61A C73U U78A | -0.265
135 | G60C A83G | -1.24
136 | G48A G61C C88A C97U C115G A119G U126A | -3.38
137 | A18G G93A | -3.21
138 | G44C G77U C86A | -4.13
139 | G10U C53G C70U C86U A119G | -0.267
140 | G61U U129G | -1.79
141 | U78C A111G G117A | -2.7
142 | C4U G52C G63A G110A | -4.4
143 | C11A G47C | -2.77
144 | U9G G77U C123U | 1.93

Row | Variant | polymerase ribozyme fitness (log ratio)
145 | G63A A91G U129A | -3.01
146 | G36C G39C C62U C124G U130G | -1.27
147 | U9C C11U U78C C82G A83U | -0.241
148 | C11G A37U G69A A83C A121C | -1.05
149 | G10C G71U C114A A118C | -6.14
150 | U7G G69U G122A | 0.793
151 | U21A G61A U96C | -0.247
152 | G17U G61A U81G C101G G117C G128U | -7.2
153 | C40G C115A G120C G122U | -1.41
154 | C53U U92A G113A G117A C124A | -5.57
155 | G58U C70G U106C C124U U130A | -2.53
156 | C4U A100U G117U | -4.99
157 | C15U A95G | -1.71
158 | G36C C49U A74G C101G A119U | -3.8
159 | C85G C115G U132A | -2.4
160 | U92A U129G | -4.28
161 | G17C C34G C99U G110U G127U | -5.7
162 | C13A A18G | -3.1
163 | C70U A119G | 0.891
164 | G10A G42A A43U | -1.82
165 | C64U A74C A75U G110A | -1.89
166 | C8A C12G G39C G63C U78G G117U | -2.3
167 | C12U G42C C72U | -1.28
